Assay results published in patent US20240059789A1 (Janssen / Centocor, published 2024).
Residue numbers refer to the chain shown, from its start.

B1: PS3B930 (bispecific antibody, human IgG1, kappa, lambda, L234A L235A)
heavy 1: EVQLVESGGGLVKPGGSLRLSCAASGFTFSRYNMNWVRQAPGKGLEWVSSISTSSNYIYYADSVKGRFTFSRDNAKNSLDLQMSGLRAEDTAIYYCTRGWGPFDYWGQGTLVTVSSASTKGPSVFPLAPSSKSTSGGTAALGCLVKDYFPEPVTVSWNSGALTSGVHTFPAVLQSSGLYSLSSVVTVPSSSLGTQTYICNVNHKPSNTKVDKKVEPKSCDKTHTCPPCPAPEAAGGPSVFLFPPKPKDTLMISRTPEVTCVVVSVSHEDPEVKFNWYVDGVEVHNAKTKPREEQYNSTYRVVSVLTVLHQDWLNGKEYKCKVSNKALPAPIEKTISKAKGQPREPQVYTLPPSREEMTKNQVSLTCLVKGFYPSDIAVEWESNGQPENNYKTTPPVLDSDGSFLLYSKLTVDKSRWQQGNVFSCSVMHEALHNHYTQKSLSLSP
light 1: DIQMTQSPSSLSASVGDRVTITCRARQSIGTAIHWYQQKPGKAPKLLIKYASESISGVPSRFSGSGSGTDFTLTISSLQPEDFATYYCQQSGSWPYTFGQGTKLEIKRTVAAPSVFIFPPSDEQLKSGTASVVCLLNNFYPREAKVQWKVDNALQSGNSQESVTEQDSKDSTYSLSSTLTLSKADYEKHKVYACEVTHQGLSSPVTKSFNRGEC
heavy 2: EVQLVESGGGLVKPGGSLRLSCAASGFTFSRYNMNWVRQAPGKGLEWVSSINSNSRYIYYADSVKGRFTISRDSAKNSLYLQMNSLRAEDTAVYYCAKTMGDYYYYYGMDVWGQGTTVTVSSASTKGPSVFPLAPSSKSTSGGTAALGCLVKDYFPEPVTVSWNSGALTSGVHTFPAVLQSSGLYSLSSVVTVPSSSLGTQTYICNVNHKPSNTKVDKKVEPKSCDKTHTCPPCPAPEAAGGPSVFLFPPKPKDTLMISRTPEVTCVVVSVSHEDPEVKFNWYVDGVEVHNAKTKPREEQYNSTYRVVSVLTVLHQDWLNGKEYKCKVSNKALPAPIEKTISKAKGQPREPQVYTLPPSREEMTKNQVSLTCLVKGFYPSDIAVEWESNGQPENNYKTTPPVLDSDGSFFLYSRLTVDKSRWQQGNVFSCSVMHEALHNHYTQKSLSLSPG
light 2: QSVLTQPPSVSGAPGQRVTISCTGSSFNLGAGYDVHWYQQVPGTVPKLLIYDNSNRPSGVPDRFSGSKSGTSASLAITGLQAEDETVYYCQSYDSSLSGVVFGGGTKLTVLGQPKAAPSVTLFPPSSEELQANKATLVCLISDFYPGAVTVAWKADSSPVKAGVETTTPSKQSNNKYAASSYLSLTPEQWKSHRSYSCQVTHEGSTVEKTVAPTECS
B2: PS3B1356 (bispecific antibody, human IgG1, lambda, L234A L235A)
heavy 1: QVQLQQSGPGLVKPSQTLSLTCAISGDSVFNNNAAWSWIRQSPSRGLEWLGRTYYRSKWLYDYAVSVKSRITINPDTSKNQFSLQLNSVTPEDTAVYYCARGYSSSFDYWGQGTLVTVSSASTKGPSVFPLAPSSKSTSGGTAALGCLVKDYFPEPVTVSWNSGALTSGVHTFPAVLQSSGLYSLSSVVTVPSSSLGTQTYICNVNHKPSNTKVDKKVEPKSCDKTHTCPPCPAPEAAGGPSVFLFPPKPKDTLMISRTPEVTCVVVSVSHEDPEVKFNWYVDGVEVHNAKTKPREEQYNSTYRVVSVLTVLHQDWLNGKEYKCKVSNKALPAPIEKTISKAKGQPREPQVYTLPPSREEMTKNQVSLTCLVKGFYPSDIAVEWESNGQPENNYKTTPPVLDSDGSFLLYSKLTVDKSRWQQGNVFSCSVMHEALHNHYTQKSLSLSPGK
light 1: QSALTQPASVSGSPGQSITISCTGTSSNIGTYKFVSWYQQHPGKAPKVMIYEVSKRPSGVSNRFSGSKSGNTASLTISGLQAEDEADYYCVSYAGSGTLLFGGGTKLTVLGQPKAAPSVTLFPPSSEELQANKATLVCLISDFYPGAVTVAWKADSSPVKAGVETTTPSKQSNNKYAASSYLSLTPEQWKSHRSYSCQVTHEGSTVEKTVAPTECS
heavy 2: EVQLVESGGGLVQPGGSLRLSCAASGFTFSSYAMSWVRQAPGKGLEWVSAISGGIGSTYYADSVKGRFTISRDNSKNTLWLQMNSLRAEDTAVYYCAKDGVGATPYYFDYWGQGTLVTVSSASTKGPSVFPLAPSSKSTSGGTAALGCLVKDYFPEPVTVSWNSGALTSGVHTFPAVLQSSGLYSLSSVVTVPSSSLGTQTYICNVNHKPSNTKVDKKVEPKSCDKTHTCPPCPAPEAAGGPSVFLFPPKPKDTLMISRTPEVTCVVVSVSHEDPEVKFNWYVDGVEVHNAKTKPREEQYNSTYRVVSVLTVLHQDWLNGKEYKCKVSNKALPAPIEKTISKAKGQPREPQVYTLPPSREEMTKNQVSLTCLVKGFYPSDIAVEWESNGQPENNYKTTPPVLDSDGSFFLYSRLTVDKSRWQQGNVFSCSVMHEALHNHYTQKSLSLSPGK
light 2: QSVLTQPPSVSAAPGQKVTISCSGSSSNIGNNYVSWYQQLPGTAPKLLIYDNNKRPSGIPDRFSGSKSGTSATLGITGLQTGDEADYYCGTWDSSLSAYVFGTGTKVTVLGQPKAAPSVTLFPPSSEELQANKATLVCLISDFYPGAVTVAWKADSSPVKAGVETTTPSKQSNNKYAASSYLSLTPEQWKSHRSYSCQVTHEGSTVEKTVAPTECS
B3: PS3B917 (bispecific antibody, human IgG1, lambda, L234A L235A)
heavy 1: QVQLQQSGPRLVRPSQTLSLTCAISGDSVFNNNAAWSWIRQSPSRGLEWLGRTYYRSKWLYDYAVSVKSRITVNPDTSRNQFTLQLNSVTPEDTALYYCARGYSSSFDYWGQGTLVTVSSASTKGPSVFPLAPSSKSTSGGTAALGCLVKDYFPEPVTVSWNSGALTSGVHTFPAVLQSSGLYSLSSVVTVPSSSLGTQTYICNVNHKPSNTKVDKKVEPKSCDKTHTCPPCPAPEAAGGPSVFLFPPKPKDTLMISRTPEVTCVVVSVSHEDPEVKFNWYVDGVEVHNAKTKPREEQYNSTYRVVSVLTVLHQDWLNGKEYKCKVSNKALPAPIEKTISKAKGQPREPQVYTLPPSREEMTKNQVSLTCLVKGFYPSDIAVEWESNGQPENNYKTTPPVLDSDGSFLLYSKLTVDKSRWQQGNVFSCSVMHEALHNHYTQKSLSLSPG
light 1: B2 light 1 with G43D, M49L, I50L, N62S, E85Q, Y89H
heavy 2: B1 heavy 2
light 2: B1 light 2

How the values were obtained:
Assay in all cases: cell-based or functional assay
[1] = biological target: Human CD3 on T cells / Jurkat cells (human, UniProt P07766 23-207)
[2] = biological target: T1, Human PSMA on prostate cancer cell lines (C4-2B, 22RV1) (human, UniProt Q04609 1-750)
[3] = biological target: T1, Human PSMA on prostate cancer cell …; remark: listed apart in the source

T1 sequence (Q04609 whole entry): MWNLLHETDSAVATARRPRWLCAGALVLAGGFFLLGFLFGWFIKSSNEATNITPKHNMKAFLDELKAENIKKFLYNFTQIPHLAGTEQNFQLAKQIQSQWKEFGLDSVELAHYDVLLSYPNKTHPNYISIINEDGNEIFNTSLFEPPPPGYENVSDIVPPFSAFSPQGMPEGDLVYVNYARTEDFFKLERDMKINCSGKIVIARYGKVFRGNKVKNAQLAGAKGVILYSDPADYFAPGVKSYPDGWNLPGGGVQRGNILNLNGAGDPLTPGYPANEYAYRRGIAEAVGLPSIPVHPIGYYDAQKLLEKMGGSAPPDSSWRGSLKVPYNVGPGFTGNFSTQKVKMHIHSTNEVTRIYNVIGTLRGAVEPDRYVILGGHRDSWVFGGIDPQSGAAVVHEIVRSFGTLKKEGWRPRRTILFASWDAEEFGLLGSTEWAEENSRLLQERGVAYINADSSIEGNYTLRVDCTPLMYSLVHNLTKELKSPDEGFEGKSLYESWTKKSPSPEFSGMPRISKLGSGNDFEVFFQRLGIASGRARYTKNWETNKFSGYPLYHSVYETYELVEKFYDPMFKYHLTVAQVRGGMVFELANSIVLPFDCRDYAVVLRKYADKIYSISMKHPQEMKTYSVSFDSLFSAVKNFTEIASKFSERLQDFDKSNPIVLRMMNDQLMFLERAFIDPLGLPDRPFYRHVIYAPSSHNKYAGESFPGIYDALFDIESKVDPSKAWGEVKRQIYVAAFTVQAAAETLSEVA
Sequence of Human CD3 on T cells / Jurkat cells (P07766 23-207 limits assumed): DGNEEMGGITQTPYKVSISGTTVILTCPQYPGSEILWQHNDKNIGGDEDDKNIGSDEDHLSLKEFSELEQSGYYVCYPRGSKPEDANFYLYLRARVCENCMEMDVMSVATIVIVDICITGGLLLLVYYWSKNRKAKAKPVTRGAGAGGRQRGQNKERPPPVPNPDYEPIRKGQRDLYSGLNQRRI

Row | Binder | T cell activation EC50 [M] (CD25+ T cells, C4-2B co-culture, 72 h) [1] | % cytolysis at 120 hours (C4-2B, xCelligence, donor #1) at 80 pM [2] [%] | % cytolysis at 120 hours (C4-2B, xCelligence, donor #1) at 0.4 nM [2] [%] | % cytolysis at 120 hours (C4-2B, xCelligence, donor #1) at 2 nM [2] [%] | % cytolysis at 120 hours (C4-2B, xCelligence, donor #1) at 10 nM [2] [%] | % cytolysis at 120 hours (C4-2B, xCelligence, donor #1) at 50 nM [2] [%] | % cytolysis at 120 hours (C4-2B, xCelligence, donor #2) at 80 pM [2] [%] | % cytolysis at 120 hours (C4-2B, xCelligence, donor #2) at 0.4 nM [2] [%] | % cytolysis at 120 hours (C4-2B, xCelligence, donor #2) at 2 nM [2] [%] | % cytolysis at 120 hours (C4-2B, xCelligence, donor #2) at 10 nM [2] [%] | % cytolysis at 120 hours (C4-2B, xCelligence, donor #2) at 50 nM [2] [%] | % cytolysis at 120 hours (C4-2B, xCelligence, donor #3) at 80 pM [2] [%] | % cytolysis at 120 hours (C4-2B, xCelligence, donor #3) at 0.4 nM [2] [%] | % cytolysis at 120 hours (C4-2B, xCelligence, donor #3) at 2 nM [2] [%] | % cytolysis at 120 hours (C4-2B, xCelligence, donor #3) at 10 nM [2] [%] | % cytolysis at 120 hours (C4-2B, xCelligence, donor #3) at 50 nM [2] [%] | Cytotoxicity (C4-2B cells, 3:1 E:T ratio, 5 Day) at 1.1 nM [3] [%] | Cytotoxicity (C4-2B cells, 3:1 E:T ratio, 5 Day) at 3.3 nM [3] [%] | Cytotoxicity (C4-2B cells, 3:1 E:T ratio, 5 Day) at 10 nM [3] [%] | Cytotoxicity (C4-2B cells, 3:1 E:T ratio, 5 Day) at 30 nM [3] [%]
1 | B1 | 2.4e-12 | – | – | – | – | – | – | – | – | – | – | – | – | – | – | – | – | – | – | –
2 | B2 | – | 0 | 100 | 100 | 100 | 100 | 0 | 24 | 100 | 100 | 100 | 0 | 100 | 100 | 100 | 100 | 55 | 80 | 83 | 88
3 | B3 | 4.48e-12 | – | – | – | – | – | – | – | – | – | – | – | – | – | – | – | – | – | – | –
